Results on two substances are retold here after publication doi:10.1101/2020.08.02.233536.

pKd: −log10 of the molar value.

Assay [1] addresses His-tagged SARS-CoV RBD protein (binding studies) (SARS-CoV) (UniProt P59594). Kind of assay: BLI.
The target in assay [2] is His-tagged SARS-CoV-2 RBD protein (binding studies) (SARS-CoV-2) (UniProt P0DTC2). In words: BLI.

Take COVA1–16 IgG1 antibody: the pKd was 6.90 in assay [1] and 9.70 in assay [2].
For COVA1–16 Fab, His-tagged, the results for the pKd in assay [1] and in assay [2] were 6.39 and 7.34, respectively.
